“And” between values parts separate entries of the source, which are not always exact repeats. Equal entries are not always repeated. No end group written: not given here. O‑glycan = not defined here
B1: A(HGVTSAPESRPAPGSTAPPA)x3 (peptide, listed as Homo sapiens)
chain: AHGVTSAPESRPAPGSTAPPAHGVTSAPESRPAPGSTAPPAHGVTSAPESRPAPGSTAPPA
modifications: Fragment of digested MUC1

Columns and labels:
[1] = target: T1, human 20S immunoproteasomes (Homo sapiens, UniProt P28062+P28065+P40306); assay: In vitro proteolysis of MUC1 repeat peptides and glycopeptides by immunoproteasomes; type: biochemical; details: for AHG 8 to -11 / PAP8 to -11 / SAP8 to -11: 8- to 11-meric fragments with this N-terminus, % of total 8- to 11-mers; for AVERAGE FRAGMENT LENGTH / NUMBER OF FRAGMENTS: digest by immunoproteasomes; for NUMBER OF FRAGMENTS: HPLC and MALDI-MS; for % of glycopeptide: glycosylated 8- to 11-meric fragments relative to total 8- to 11-mers; for 8-11 mers (%): relative to total amount of digestion products of immunoproteasomal cleavage
T1 construct: purchased Immatics Biotechnologies (Tübingen, Germany)
Method: A 1 mg/ml solution of immunoproteasomes prepared according to a published protocol (20) was purchased from Immatics Biotechnologies (Tübingen, Germany) and stored frozen at −80° C.
Glycopeptides were incubated with 10 μg of human 20S immunoproteasomes (Immatics) for […], at 37° C., in 10 μl of digestion buffer (20 mM HEPES/KOH, pH 7.6 containing 2 mM Mg(CH3COO)2 and 1 mM DTT) as described (13). Digestion was stopped after 24 h by freezing the sample at −80° C. Human cathepsin-L was purchased from Sigma (Munich, Germany) and solubilized in 0.1 M sodium acetate, pH 5.5, containing 1 mM EDTA and 1 mM dithiothreitol (12). About 5 mU of enzyme were added to sialoglycopeptide substrates SGGP1 to SGGP5 (75-100 μM) in a total volume of 20 μl. The reaction mixtures were incubated at 37° C. for 24 h and 1 μl of trifluoroacetic acid was added to stop the reaction. The reaction products were cleaned by solid-phase extraction on ZipTipC18 pipette tips and 0.5 μl aliquots were applied onto the MALDI target for mass spectrometric analysis. Kinetic studies with the non-glycosylated 100-mer P1 were performed under the same conditions and the products were chromatographed on HPLC for purification and quantification.

[2] = tested on: DC2.4 mouse dendritic cells; assay: Cellular processing and cross-presentation in mouse dendritic cell line, peptides eluted from exosomal MHC; type: cell-based
Method: Poly-lactic acid based vesicles were generated mixing two solutions: Solution A: 200 nmol of P2 peptide (1 mg) resolved in 3% cold water solution of poly-vinyl alcohol; Solution B: 5% poly-lactic acid in a mixture of ethanol and acetone (9:1, v/v). Solution B (30 ml) was slowly added to solution A (150 ml) under constant mixing and stirring overnight at room temperature. The next day the mixture was centrifuged at 10.000×g for 10 min and washed three times with PBS (200 ml), followed by centrifugation steps as mentioned previously. The generated vesicles were resuspended in 330 μl of PBS and added to media of 4×108 DC2.4 mouse dendritic cells growing confluent in nine cell culture flasks (300 cm^2). The cells were grown as usual, but in exosome-depleted medium.
Cells were incubated with PLA-vesicles for 24 h at 37° C. and 5% CO2. The cell culture supernatant was collected and exosomes were isolated by ultracentrifugation (see below). Isolated exosomes were resuspended in 100 μl 0.1% TFA/H2O. Acidification of exosomes denatures tertiary MHC complex and releases bound peptide epitopes. The solution was shortly spun and injected on a HPLC narrow-bore ODS column for separation of eluted peptides and glycopeptides. Fractions were collected manually, dried and analyzed by MALDI-TOF-MS as described. Molecular masses of detected ions were analyzed by the FindPep software and by nanospray ESI-MS/MS analyses.
Exosomes were isolated from FCS or cell culture supernatant by subsequent centrifugation steps: 10 min/1200 g; 30 min/10000×g; 30 min/20.000×g; and 60 min/[…]. The exosomes were pelleted in the final centrifugation step, washed with PBS and used for further analyses. For the depletion of FCS from exosomes, exosomes from serum were pelleted by ultracentrifugation at 110.000×g for 1 h.

[3] = target: T2, HLA-A0201 (Homo sapiens, UniProt P04439, D140Y/D185E/D98H/E176V/E277Q/G131W/G231S/I119V/I121R/I166T/I218V/L300P/L318F/N151K/N90K/P208A/P217A/Q86G/Q94H/R138H/R169H/T345S); assay: MHC stabilization assay on T2 cells; type: binding; details: for ligation strength (binding to HLA-A0201): T2 cells, 100 μg peptide, 16 h, W6/32 antibody, FACS; for change of ligation strength by introduction of GalNAc: glycosylated versus non-glycosylated form
T2 construct: endogenous in cells; host or cells: T2 cell line (TAP-deficient)
Method: MHC stabilization assay is based on the increased affinity of HLA-A, -B, -C specific monoclonal W6/32 antibody for the stabilized conformation of MHC molecules after binding of a peptide ligand. The T2 cells express empty MHC molecules with short half-life.
For MHC stabilization assay T2 cells were grown in IMDM medium supplemented with 2% FCS. T2 cells were washed in PBS from the residual serum, and resuspended at 1×10^6/ml of IMDM supplemented with 0.1% FCS and 25 mM HEPES. Half of a million of cells were incubated in 48-well cell culture plate with 1 μg of […]2-microglobulin and 100 μg of peptide for 16 h at 27° C. and 8% CO2. Cells were washed with 5 ml PBS, centrifuged at 180×g for 5 min and the pellet was resuspended in 10 μl PBS containing 1 μg of W6/32 antibody and incubated at 4° C. for 30 minutes.
Subsequently, cells were washed in PBS with 1% BSA (3×5 ml) and the pellet was resuspended in 50 μl of secondary anti-mouse Alexa 488 antibody (1:1000 in PBS with 0.1% BSA), incubated for 30 minutes in the dark, washed with PBS (3×5 ml) and resuspended in 500 μl of PBS. Binding of the W6/32 antibody to MHC class I molecules was analyzed by FACS on the Beckman Coulter ADCXL4C flow cytometer. As a positive control hepatitis B virus core antigen HBVc18-27 P6Y˜C ([…]) was used. As a negative control T2 cells were used, to which no peptide was added.
Relative binding capacities of the peptides were expressed as the percent of the positive control signal (100%), normalized to the negative control (0%). A mean fluorescence that was at least 10% higher than the negative control level was considered positive binding.

[4] = tested on: T2 target cells; assay: CTL activity against peptide-loaded T2 target cells (CFSE/7-AAD); type: cell-based, human; details: T2 cells loaded with 10 μg/ml peptide, 6-hour incubation
Method: (§1) Peripheral blood mononuclear cells (PBMCs) were isolated from buffy coats of HLA-A*0201 healthy donors by Ficoll-Hypaque (MP Biomedicals, Solon, Ohio) density gradient centrifugation.
(§2) Dendritic cells (DCs) were generated by culturing adherent monocytes for 6 days in AIM-V medium (Invitrogen, Carlsbad, Calif.) supplemented with 500 U/mL granulocyte macrophage colonystimulating factor (GM-CSF, R&D, Minneapolis, Minn.) and 1000 U/mL interleukin (IL)-4 (R&D), and then matured for 48 hours with a cocktail of cytokines consisting of 10 ng/mL of each, tumor necrosis factor (TNF)-alpha, IL-6, IL-1beta (R&D), and 1 μg/mL prostaglandine E2 (Sigma, St. Louis, Mo.). […] DCs pulsed with single peptides were combined, washed, resuspended and used as stimulator cells. They were added to the autologous lymphocyte fraction in 24-well Linbro plates (ICN, Aurora, Ohio) at a ratio of 1:10 at culture initiation and fed in RPMI 1640 media supplemented with 10% human AB serum, 10 ng/ml rhIL-6 (R&D) and 5 ng/ml rhIL-12 (PreproTech, Rocky Hill, N.J.). On day 10 and thereafter every 9 days, T cells were restimulated at a ratio of 1 DC to 20 T cells, in RPMI 1640 media supplemented with 10% human AB serum, rhIL-2 and rhIL-7 (20 U/ml each, R&D).
(§3) Antigen Specificity was Assessed after 4 Stimulations. Three Days Past Each stimulation cell supernatant was collected and IFNy secretion was quantified using OptElA human IFNy ELISA kit (BD). CD8+ T-cells were enriched using magnetic microbeads (human CD8+ T Cell Isolation Kit II from Miltenyi Biotech, Auburn, Calif.) according to the manufacture's instructions and analyzed by flow cytometry for intracellular IFN-gamma and TNF-alpha production after a final 5-hour restimulation with peptide-loaded DCs in the presence of monensin (Golgi Stop, BD; 21). CTL activity was determined 3 days after the last restimulation. […] They were washed, labeled with 5- (and 6)-carboxyfluorescein diacetate succinimidyl ester (CFSE) according to the manufacture's instructions (Immunochemistry, Bloomington, Minn.) and added to a 96-well plate in duplicates at 5000 cells/well. CFSE labeled T2 cells not loaded with peptides were used as controls. CD8+ T effector cells were added at various E:T ratios for a 6-hour incubation at 37° C. Target cell death was detected by adding 7-amino-actinomycin (7-AAD, Immunochemistry) to each well 10 min before data analysis by flow cytometry and analysis was performed according to the manufacture's instructions (22).

[5] = tested on: CD8+ T-cells; assay: IFN-gamma and TNF-alpha production by peptide-primed T-cells; type: cell-based, human; details: after last cycle of restimulation, 4 weeks of in vitro culture
Method: as §1, §2, §3

| Molecule | AVERAGE FRAGMENT LENGTH [1] | NUMBER OF FRAGMENTS [1] | % of glycopeptide [1] | 8-11 mers (%) [1] | class I binding activity [2] | other results |
| --- | --- | --- | --- | --- | --- | --- |
| AHGVTSAPESRPAPGSTAPPA [GP5] (AHGVT(O‑glycan)SAPESRPAPGSTAPPA; not fully specified; reading uncertain; also: glycan structure not given here; listed as Homo sapiens) [MUC1 glycopeptide, glycosylated threonine within the VTS motif] | 11.6 | 46 | 26% | 79% | – | AHG 8 to -11 [1]: 26%; PAP8 to -11 [1]: 47%; SAP8 to -11 [1]: 27% |
| AHGVTSAPESRPAPGSTAPPA [GP6] (AHGVTSAPES(O‑glycan)RPAPGSTAPPA; reading uncertain; also: glycan structure not given here; listed as Homo sapiens) [MUC1 glycopeptide, glycosylated within the ESR motif] | 10.6 | 46 | 98% and 96% | 35% | – | AHG 8 to -11 [1]: 55%; PAP8 to -11 [1]: 3%; SAP8 to -11 [1]: 42% |
| AHGVTSAPESRPAPGSTAPPA [GP8] (AHGVTS(O‑glycan)APESRPAPGSTAPPA; reading uncertain; also: glycan structure not given here; listed as Homo sapiens) [chemically synthesized MUC1 derived glycopeptide, glycosylation site not readable] | 10.5 | 46 | 21% | 35% | – | – |
| AHGVTSAPESRPAPGSTAPPA [P4] (fragment of digested MUC1; listed as Homo sapiens) [Peptide P4] | 11.6 | 31 | 0% | 50% | – | – |
| APESRPAP (fragment of MUC1; listed as Homo sapiens) | – | – | – | – | considerable class I binding activity | – |
| APESRPAPG (fragment of MUC1; listed as Homo sapiens) | – | – | – | – | considerable class I binding activity | – |
| APESRPAPGS (fragment of MUC1; listed as Homo sapiens) | – | – | – | – | considerable class I binding activity | – |
| HGVTSAPESRPAPGSTAPPA [GP7] | 11.7 | 61 | 40% and 39% | 29% | – | AHG 8 to -11 [1]: 8%; PAP8 to -11 [1]: 31%; SAP8 to -11 [1]: 61% |
| PESRPAPGS (fragment of MUC1; listed as Homo sapiens) | – | – | – | – | considerable class I binding activity | – |
| PESRPAPGST (fragment of MUC1; listed as Homo sapiens) | – | – | – | – | considerable class I binding activity | – |
| S(-GalNAc)APDTRPAPG ({Ser(GalNAc)}-APDTRPAPG) | – | – | – | – | – | ligation strength (binding to HLA-A0201) [3]: strongly reduce binding affinity in comparison with the corresponding nonglycosylated peptide |
| SAPES(GalNAc)RPAPG [Peptide F3] | – | – | – | – | – | lysis of peptide-pulsed T2 target cells by induced CD8+ T cells [4]: only minimal increased cell lysis above the background lysis; CD8+ cells producing IFN-γ [5]: 18.1%; TNF-α production by CD8+ cells [5]: not TNF-α |
| SAPESRPAPG (fragment of MUC 1; listed as Homo sapiens) | – | – | – | – | considerable class I binding activity | – |
| SAPESRPAPGS (fragment of MUC1; listed as Homo sapiens) | – | – | – | – | considerable class I binding activity | – |
| ST(-GalNAc)APPAHGVT ({Ser-T(GalNAc)}-APPAHGVT) | – | – | – | – | – | ligation strength (binding to HLA-A0201) [3]: strongly reduce binding affinity in comparison with the corresponding nonglycosylated peptide |
| STAPPAHGV [STA9] | – | – | – | – | – | ligation strength (binding to HLA-A0201) [3]: strongest binders; change of ligation strength by introduction of GalNAc [3]: reducing it to the level of the negative control |
| STAPPAHGVT [STA10] | – | – | – | – | considerable class I binding activity | ligation strength (binding to HLA-A0201) [3]: strongest binders; change of ligation strength by introduction of GalNAc [3]: reducing it to the level of the negative control |
| B1 | 17.5 | 105 | 0% | 26% | – | – |
